In paper PMC10547376:

Target: actively translating polysomes (cytosolic ribosomes) (human (endogenous in HeLa, HT29))
Assay: co-sedimentation

B1: TRAP1 (endogenous) (natural protein)
chain: STQTAEDKEEPLHSIISSTESVQGSTSKHEFQAETKKLLDIVARSLYSEKEVFIRELISNASDALEKLRHKLVSDGQALPEMEIHLQTNAEKGTITIQDTGIGMTQEELVSNLGTIARSGSKAFLDALQNQAEASSKIIGQFGVGFYSAFMVADRVEVYSRSAAPGSLGYQWLSDGSGVFEIAEASGVRTGTKIIIHLKSDCKEFSSEARVRDVVTKYSNFVSFPLYLNGRRMNTLQAIWMMDPKDVREWQHEEFYRYVAQAHDKPRYTLHYKTDAPLNIRSIFYVPDMKPSMFDVSRELGSSVALYSRKVLIQTKATDILPKWLRFIRGVVDSEDIPLNLSRELLQESALIRKLRDVLQQRLIKFFIDQSKKDAEKYAKFFEDYGLFMREGIVTATEQEVKEDIAKLLRYESSALPSGQLTSLSEYASRMRAGTRNIYYLCAPNRHLAEHSPYYEAMKKKDTEVLFCFEQFDELTLLHLREFDKKKLISVETDIVVDHYKEEKFEDRSPAAECLSEKETEELMAWMRNVLGSRVTNVKVTLRLDTHPAMVTVLEMGAARHFLRMQQLAKTQEERAQLLQPTLEINPRHALIKKLNQLRASEPGLAQLLVDQIYENAMIAAGLVDDPRAMVGRLNELLVKALERH
B1 gave a percent of total TRAP1 in the polysomal fractions greater than 0.7%.
